Measurements published in paper PMC3599065.

B1: GFP-JIP1-WT, Q9WVI9-1 V581A (protein)
chain: MAERESGLGGGAASPPAASPFLGLHIASPPNFRLTHDISLEEFEDEDLSEITDECGISLQCKDTLSLRPPRAGLLSAGSSGSAGSRLQAEMLQMDLIDAAGDTPGAEDDEEEEDDELAAQRPGVGPPKAESNQDPAPRSQGQGPGTGSGDTYRPKRPTTLNLFPQVPRSQDTLNNNSLGKKHSWQDRVSRSSSPLKTGEQTPPHEHICLSDELPPQGSPVPTQDRGTSTDSPCRRSAATQMAPPSGPPATAPGGRGHSHRDRIHYQADVRLEATEEIYLTPVQRPPDPAEPTSTFMPPTESRMSVSSDPDPAAYSVTAGRPHPSISEEDEGFDCLSSPERAEPPGGGWRGSLGEPPPPPRASLSSDTSALSYDSVKYTLVVDEHAQLELVSLRPCFGDYSDESDSATVYDNCASASSPYESAIGEEYEEAPQPRPPTCLSEDSTPDEPDVHFSKKFLNVFMSGRSRSSSAESFGLFSCVINGEEHEQTHRAIFRFVPRHEDELELEVDDPLLVELQAEDYWYEAYNMRTGARGVFPAYYAIEVTKEPEHMAALAKNSDWIDQFRVKFLGSVQVPYHKGNDALCAAMQKIATTRRLTVHFNPPSSCVLEISVRGVKIGVKADDALEAKGNKCSHFFQLKNISFCGYHPKNNKYFGFITKHPADHRFACHVFVSEDSTKALAESVGRAFQQFYKQFVEYTCPTEDIYLE
B2: GFP-JIP1-WT, Q9WVI9-1 F687V (protein)
chain: MAERESGLGGGAASPPAASPFLGLHIASPPNFRLTHDISLEEFEDEDLSEITDECGISLQCKDTLSLRPPRAGLLSAGSSGSAGSRLQAEMLQMDLIDAAGDTPGAEDDEEEEDDELAAQRPGVGPPKAESNQDPAPRSQGQGPGTGSGDTYRPKRPTTLNLFPQVPRSQDTLNNNSLGKKHSWQDRVSRSSSPLKTGEQTPPHEHICLSDELPPQGSPVPTQDRGTSTDSPCRRSAATQMAPPSGPPATAPGGRGHSHRDRIHYQADVRLEATEEIYLTPVQRPPDPAEPTSTFMPPTESRMSVSSDPDPAAYSVTAGRPHPSISEEDEGFDCLSSPERAEPPGGGWRGSLGEPPPPPRASLSSDTSALSYDSVKYTLVVDEHAQLELVSLRPCFGDYSDESDSATVYDNCASASSPYESAIGEEYEEAPQPRPPTCLSEDSTPDEPDVHFSKKFLNVFMSGRSRSSSAESFGLFSCVINGEEHEQTHRAIFRFVPRHEDELELEVDDPLLVELQAEDYWYEAYNMRTGARGVFPAYYAIEVTKEPEHMAALAKNSDWIDQFRVKFLGSVQVPYHKGNDVLCAAMQKIATTRRLTVHFNPPSSCVLEISVRGVKIGVKADDALEAKGNKCSHFFQLKNISFCGYHPKNNKYFGFITKHPADHRFACHVFVSEDSTKALAESVGRAVQQFYKQFVEYTCPTEDIYLE
B3: GFP-JIP1-WT, Q9WVI9-1 F642V (protein)
chain: MAERESGLGGGAASPPAASPFLGLHIASPPNFRLTHDISLEEFEDEDLSEITDECGISLQCKDTLSLRPPRAGLLSAGSSGSAGSRLQAEMLQMDLIDAAGDTPGAEDDEEEEDDELAAQRPGVGPPKAESNQDPAPRSQGQGPGTGSGDTYRPKRPTTLNLFPQVPRSQDTLNNNSLGKKHSWQDRVSRSSSPLKTGEQTPPHEHICLSDELPPQGSPVPTQDRGTSTDSPCRRSAATQMAPPSGPPATAPGGRGHSHRDRIHYQADVRLEATEEIYLTPVQRPPDPAEPTSTFMPPTESRMSVSSDPDPAAYSVTAGRPHPSISEEDEGFDCLSSPERAEPPGGGWRGSLGEPPPPPRASLSSDTSALSYDSVKYTLVVDEHAQLELVSLRPCFGDYSDESDSATVYDNCASASSPYESAIGEEYEEAPQPRPPTCLSEDSTPDEPDVHFSKKFLNVFMSGRSRSSSAESFGLFSCVINGEEHEQTHRAIFRFVPRHEDELELEVDDPLLVELQAEDYWYEAYNMRTGARGVFPAYYAIEVTKEPEHMAALAKNSDWIDQFRVKFLGSVQVPYHKGNDVLCAAMQKIATTRRLTVHFNPPSSCVLEISVRGVKIGVKADDALEAKGNKCSHFFQLKNISVCGYHPKNNKYFGFITKHPADHRFACHVFVSEDSTKALAESVGRAFQQFYKQFVEYTCPTEDIYLE

Each binder was assayed against kinesin-1 (endogenous, Neuro2a), Q61768;O88447 (assay: co-immunoprecipitation with anti-GFP antibody, western blot for KHC, quantified). Settings: chain shown with the change, lysates of Neuro2a cells expressing GFP-JIP1 constructs, kinesin-1 signal normalized to precipitated GFP-JIP1, n > 3.
kinesin-1 (endogenous, Neuro2a), Q61768;O88447, sequence (chain, as listed by the source, chain 1 of 2): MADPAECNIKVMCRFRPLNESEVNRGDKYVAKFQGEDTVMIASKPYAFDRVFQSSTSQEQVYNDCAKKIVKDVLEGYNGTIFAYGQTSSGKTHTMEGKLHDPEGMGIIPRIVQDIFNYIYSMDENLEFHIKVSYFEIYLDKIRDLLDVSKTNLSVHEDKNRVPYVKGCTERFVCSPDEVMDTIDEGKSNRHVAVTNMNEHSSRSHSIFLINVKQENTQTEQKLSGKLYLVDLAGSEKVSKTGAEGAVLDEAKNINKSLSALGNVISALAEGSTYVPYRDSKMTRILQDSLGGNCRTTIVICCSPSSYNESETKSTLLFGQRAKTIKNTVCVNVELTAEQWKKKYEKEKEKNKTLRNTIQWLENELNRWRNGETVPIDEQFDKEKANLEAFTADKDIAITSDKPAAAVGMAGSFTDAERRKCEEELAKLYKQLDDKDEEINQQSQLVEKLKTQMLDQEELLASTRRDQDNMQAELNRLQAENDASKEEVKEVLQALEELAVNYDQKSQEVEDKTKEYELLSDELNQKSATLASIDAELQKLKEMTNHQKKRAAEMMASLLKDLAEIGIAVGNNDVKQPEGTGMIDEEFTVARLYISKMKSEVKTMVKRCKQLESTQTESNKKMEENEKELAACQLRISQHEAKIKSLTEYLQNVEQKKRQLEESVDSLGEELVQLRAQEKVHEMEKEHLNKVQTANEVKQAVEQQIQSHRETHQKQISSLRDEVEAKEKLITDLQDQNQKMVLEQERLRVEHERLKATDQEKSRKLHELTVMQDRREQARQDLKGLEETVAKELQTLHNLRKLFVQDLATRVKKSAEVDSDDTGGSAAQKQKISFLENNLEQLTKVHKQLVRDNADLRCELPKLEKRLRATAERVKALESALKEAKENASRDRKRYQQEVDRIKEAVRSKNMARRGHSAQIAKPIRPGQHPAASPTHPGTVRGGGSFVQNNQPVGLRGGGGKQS
kinesin-1 (endogenous, Neuro2a), Q61768;O88447, sequence (chain, as listed by the source, chain 2 of 2): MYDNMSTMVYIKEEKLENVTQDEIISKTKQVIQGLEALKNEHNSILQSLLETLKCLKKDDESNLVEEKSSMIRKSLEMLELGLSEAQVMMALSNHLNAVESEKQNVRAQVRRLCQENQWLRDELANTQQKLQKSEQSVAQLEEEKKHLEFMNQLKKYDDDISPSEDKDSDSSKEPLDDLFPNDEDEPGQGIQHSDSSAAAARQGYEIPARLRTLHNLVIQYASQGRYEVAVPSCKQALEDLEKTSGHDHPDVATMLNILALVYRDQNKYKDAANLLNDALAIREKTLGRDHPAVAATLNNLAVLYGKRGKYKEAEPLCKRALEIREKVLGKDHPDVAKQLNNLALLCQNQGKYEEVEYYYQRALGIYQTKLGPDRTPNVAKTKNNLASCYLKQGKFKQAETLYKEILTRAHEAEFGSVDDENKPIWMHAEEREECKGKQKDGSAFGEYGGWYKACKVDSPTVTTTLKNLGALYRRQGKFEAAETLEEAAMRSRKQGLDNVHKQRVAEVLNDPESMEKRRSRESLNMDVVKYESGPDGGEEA

Binder | percent of parent
B1 | 13.4
B2 | 25.4
B3 | 3.7
